Test: yeast display, Sf9 membrane polyspecificity reagent, FACS + sequencing; frameworks hold sequencing errors
In short: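 Nanobodies from a synthetic yeast display library (Saccharomyces cerevisiae BJ5465), induced 36–48 hours with galactose, were stained 1 hour at 4 °C with 10% biotinylated, detergent-solubilized Sf9 membrane reagent, enriched on streptavidin microbeads, then FACS-sorted. Anti-HA (expression) and streptavidin (reagent binding) fluorescence set low and high (top ~1%) gates. Polyreactivity labels come from the gate of origin. Genes were colony-PCR amplified, MiSeq 2 × 250 sequenced and filtered by CDR length.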

QVQLVESGGGLVQAGGSLRLSCAASGRFFKSYAMGWYRQAPGKERELVAAISRSDDTTYYADSVKGRFTISRDNAKNTVYLQMNSLKPEDTAVYYCAADTWRDGDDYWGQGTQVTVSS
polyreactivity (PSR sort gate): low polyreactivity

QVQLVESGGGLVQAGGSLRLSCAASGRICSQYAMGWYRQAPGKERELVAAISTSGDRTYYADSVKGRFTISRDNAQNSGYLQLNSLKPEDTAVYYCAKDGPYTYGRDIYEYWGQGTQVTVSS
polyreactivity (PSR sort gate): low polyreactivity

QVQLVESGGGLVQAGGSLRLSCAASGRICWYYGLGWYRQAPGKERELVAAITTGGSTYADSVKGRFTISRDNAKNTVYLQMNSLKPEDPAVYYCAADGSYVWRNGWTYFYWGQGTQVTVSS
polyreactivity (PSR sort gate): high polyreactivity

QVQLVESGGGLVQAGGSLRLSCAASGRIDRPYAMGLYRPAPGKERELVAAISRRGGSTYYADSVKGRFTISRDNAKNTVYLQMKSLKPEDTAVYYCAADYWYESLRLQGIQGLDYWGQGTQVTVSS
polyreactivity (PSR sort gate): high polyreactivity

QVQLVESGGGLVQAGGSLRLSCAASGRIFAANAMGWYRQAPGKERELVATISTGGGRTYYADSVKGRFTISRDNAKNTVYLQMNSLKPEDTAVYYCAASRGYLVPTRLAYYYWGQGTQVTVSS
polyreactivity (PSR sort gate): high polyreactivity

QVQLVESGGGLVQAGGSLRLSCAASGRIFADNAMGWYRQAPGKERELVADITYSGGSTYYADSVKGRFTISRDNAKNTVYLQMNSLKPEDTAVYSCAKQGVDYWGQGTQVTVSS
polyreactivity (PSR sort gate): low polyreactivity

QVQLVESGGGLVQAGGSLRLSCAASGRIFADYAMGWYRQAPGKERELVADIRQSGGRTYYADSVKGRFTISRDNAKNTVYFQINRLKPEDTAVYYCATDYGSWGDYSGKYDYWGQGTQVTVSS
polyreactivity (PSR sort gate): low polyreactivity

QVQLVESGGGLVQAGGSLRLSCAASGRIFADYAMGWYRQAPGKERELVADIRQSGGRTYYADSVKGRFTISRDNAKNTVYLQMNSLNPEDTAVYYCATDYGSWGDYSGKYDYWGQGTQVTVSS
polyreactivity (PSR sort gate): low polyreactivity

QVQLVESGGGLVQAGGSLRLSCAASGRIFAFNAMGWYRQAPGTESELVAAINWSGTTTYYADSVKGRFTISRDNAKNTVYLQMNSLKPEDTAVYYCAADVTFRGYAKYYYWGQGTQVTVSS
polyreactivity (PSR sort gate): low polyreactivity

QVQLVESGGGLVQAGGSLRLSCAASGRIFAFYAMGWYRQAPGKERELVAAISWSGGSTYYADSVKGRFTISRDNAKNTVYLQMNSLKPEDTAVYYCAAYRTRGSAYPYDYWGQGTQVTVSS
polyreactivity (PSR sort gate): high polyreactivity

QVQLVESGGGLVQAGGSLRLSCAASGRIFAFYTMGWYIQAPGKERELVAAITRRSGSTYYADSVKGRFTISRDNAKNTVYLQMNSLKPEDTAVYYCAVDTYIYTNRRYTKFDYWGQGTQVTVSS
polyreactivity (PSR sort gate): low polyreactivity

QVQLVESGGGLVQAGGSLRLSCAASGRIFAGNAMGWYRQAPGKERELVAVISKGGGRTYYADSVKGRFTFSRDNAKNTVYLQMNSLKPEDTAVYYCAVRTLQRGKHDLGVDYWGQGTHVTVSS
polyreactivity (PSR sort gate): high polyreactivity

QVQLVESGGGLVQAGGSLRLSCAASGRIFAGNTKGWYRQAPGKERELVAAITSSGGSTYYADSVKGRFTISRDNANTTVYLQMNSLKPEDTAVYYPIVYYVKYYYWGQGTQVTVSS
polyreactivity (PSR sort gate): high polyreactivity

QVQLVESGGGLVQAGGSLRLSCAASGRIFAGYALGWYRQAPGKERELVAAITFRSGTTYYADSVKGRFTISRDNAKNTVYLQMHSLKPEDTAVYYCAARWGPYAFTYVRTYDYWGQGTQVTGSS
polyreactivity (PSR sort gate): low polyreactivity

QVQLVESGGGLVQAGGSLRLSCAASGRIFAGYAMGWYRQAPGKERELVAAISKRGGSTYYADSVKGRFTISRDKAKNTVYLQMNSLKPEDTAVYYCAADTGYPNGQGQGYQNFGGYYWGQGTQVTVSS
polyreactivity (PSR sort gate): high polyreactivity

QVQLVESGGGLVQAGGSLRLSCAASGRIFAGYGMGWYRQAPGKERELVAAISSGGSTYYADSVKGRFTISRDNAKNTVYLQMNSLKPEDTAVYYCATDGQSVPDDYYQNVDYDYWGQGTQVTVSS
polyreactivity (PSR sort gate): low polyreactivity

QVQLVESGGGLVQAGGSLRLSCAASGRIFAHYAMGWYRQAPGKEMELFATISLSVGSTYYADSVKGRFTISRDNAKNTVYLQMNSLKPEDTSVYYCNATGYYATSHITYDYWGQVTQVTVSS
polyreactivity (PSR sort gate): low polyreactivity

QVQLVESGGGLVQAGGSLRLSCAASGRIFAKYAMGWYRQAPGTERELVAAISWGGGSTYYADSVKGRFTISRDNAKNTVYLQMNSLKPEDTAVYYCAARIPKQRDVRGSGMNYWGQGTQVTVSS
polyreactivity (PSR sort gate): high polyreactivity

QVQLVESGGGLVQAGGSLRLSCAASGRIFANNAMGWYRQAPGKERELVAAINWSGSRTYYADSVKGRFTISRDNAKNTVYLQMNSLNPEDTAVYYCAAVGRWGVTGSHHDAYDYWGQGTQVTVSS
polyreactivity (PSR sort gate): high polyreactivity

QVQLVESGGGLVQAGGSLRLSCAASGRIFANYAMGWYRQAPGKERELVAGITTGGSTYYADSVKGRFTISRDNAKNTVYLQMNSLKPVDTAVYYCAVRWRNRLYYYWGQGTQVTVSS
polyreactivity (PSR sort gate): high polyreactivity

QVQLVESGGGLVQAGGSLRLSCAASGRIFAPKAMGWYRQAPGKERELVATITWSGGSTYYADSVKGRFTISRDNAKNSVYLQMNSLNPEDTAVYYCAAETQIRLWSLQYRYYYWGQGTQVTVSS
polyreactivity (PSR sort gate): low polyreactivity

QVQLVESGGGLVQAGGSLRLSCAASGRIFAPYAMGWYRQAPGKERELVAAIDGSGGSTYYADSVKGRFTISRDNAKNTVYLQMNSLKPEDTAVYYCATRGSYRSQRWYGYWGQGTQVTVSS
polyreactivity (PSR sort gate): high polyreactivity

QVQLVESGGGLVQAGGSLRLSCAASGRIFAQYALGWYRQAPGKERELVAGIDRRGGSTYYADSVKGRFTISRDNAKNTVYLQMNSLKPEDTAVYYCNALREDPLFFVYIGGGYWGQGTQVTVSS
polyreactivity (PSR sort gate): low polyreactivity

QVQLVESGGGLVQAGGSLRLSCAASGRIFAQYAMGWYRQAPGKDRELVADISSGVRTYADSVKGRFTISRDNAKNTVYLQMNSLKPEDTAVYYCNAYYIIFTRNDYWGQGTQVNVSS
polyreactivity (PSR sort gate): low polyreactivity

QVQLVESGGGLVQAGGSLRLSCAASGRIFAQYAMGWYRQAPGKEREFVAAITGSTDSTYYADSVKGRFTISRDNAKNTVYLQMNSLKPEDTAVYYCAKDDAYSTIIDYEYSYDYWGQGTQVTVSS
polyreactivity (PSR sort gate): high polyreactivity

QVQLVESGGGLVQAGGSLRLSCAASGRIFARNAMGWYIQAPGKEREFVAAITHSGGNTYYADSVKGRFTISRDNAKKTVYLQMNSLKPEDTAVYYCAKEYRSTKYDYWGQGTQVTVSS
polyreactivity (PSR sort gate): low polyreactivity

QVQLVESGGGLVQAGGSLRLSCAASGRIFARNAMGWYIQAPWKERELVAAISWTGDSTYYADSVKGRFTISRDNAKNTVYLQMNSLKPEDTAVYYCNALVYHTKGDYGYWGQGTQVTVSS
polyreactivity (PSR sort gate): low polyreactivity

QVQLVESGGGLVQAGGSLRLSCAASGRIFARNAMGWYRQAPGKERELVAVITSRGGSTYYADSVKGRFTISRDNAKNTVYLQMNSLKPEDTAVYYCAARYSGEYGYWGQGTQVTVSS
polyreactivity (PSR sort gate): high polyreactivity

QVQLVESGGGLVQAGGSLRLSCAASGRIFARNAMGWYRQAPGKESELVAAINWSGGSTYYADSVKGRFTISRDNAKNTVYLQMNSLKPEDTAVYYCATRSSLFRQYLPWYEYWGQGTQVTVSS
polyreactivity (PSR sort gate): low polyreactivity

QVQLVESGGGLVQAGGSLRLSCAASGRIFASNAMGWYRPAPGKERELVAAIDQGGGSTYYADSVKGRFTISRDNAKNTVYLQMNSLKPEDTAVYYCAADYITAYPRLYNYWGQGTQVTVSS
polyreactivity (PSR sort gate): low polyreactivity

QVQLVESGGGLVQAGGSLRLSCAASGRIFASYAMGWYRQAPGKERELVAAIDRTDSTYYADSVKGRFTISRDNAKNTVYLQMNSLKPEDTAVYYCAADEYYTFSSFELRRMDYWGQGTQVTVSS
polyreactivity (PSR sort gate): low polyreactivity

QVQLVESGGGLVQAGGSLRLSCAASGRIFASYAMGWYRQAPGKERELVAAISKSGGRTYYADSVKGRFTISRDNAKNTVYLQMNSLKPEDTAVYYCAADGYRYYSWTRFSYYSGYDYWGQGTQVTVSS
polyreactivity (PSR sort gate): high polyreactivity

QVQLVESGGGLVQAGGSLRLSCAASGRIFATNAMGWYRQAPGKERELVAAISDGGGSTYYADSVKGRFTISRDNAKNTVYLQMNSLKPEDTAVYYCAARVLDWRGDIHDSEYWGQGTQVTVSS
polyreactivity (PSR sort gate): low polyreactivity

QVQLVESGGGLVQAGGSLRLSCAASGRIFATNAMGWYRQAPGKERELVATITRSAGRTYYADSVKGRFTISRDNEKNTVYLQMNILKPDVTAVYYCAADGYSTAVDDTVRYIVEYEFWGQGTQVTVSS
polyreactivity (PSR sort gate): low polyreactivity

QVQLVESGGGLVQAGGSLRLSCAASGRIFAVNAMGWYRQAHGKERELVASISRRGGTTNYADSVKGRFTISRDNAKNTVYLKMNSLIPEDTAVYYCATRGSAWGRSYNYWGQGTQVTLSS
polyreactivity (PSR sort gate): high polyreactivity

QVQLVESGGGLVQAGGSLRLSCAASGRIFAVYVMGWYRQAPGKERELVAAISQSGGRTYYADSVKGRFTISRDNAKNTVYLQMNSLKPEDTAVYYCNTVTSRATNFSGFGYWGQGTQVTVSS
polyreactivity (PSR sort gate): high polyreactivity

QVQLVESGGGLVQAGGSLRLSCAASGRIFAWYAMGWYRQAPGKERELVAAISDSGGSTYYADSVKGRFTISRDNAKNTVYLQMNSLKPEDTAVYYCAADQVVYSAYWSDHYDYWGQGTQVTVSS
polyreactivity (PSR sort gate): low polyreactivity

QVQLVESGGGLVQAGGSLRLSCAASGRIFAYYAMGRYRQAPGKERELVAAITRSGARTYYADSVKGRFTISRDNAKNTVYLQMNSLKPEDTAVYYCAAEGVRIGTRYDYWGQGTQVTVSS
polyreactivity (PSR sort gate): high polyreactivity

QVQLVESGGGLVQAGGSLRLSCAASGRIFAYYAMGWYRQAPGKERELVAAINSNGGSTYYADSVKGRFTISRDNAKNTVYLQLNSLKPEDTAVYYCAAGARYKMGYWGQGTQVTVSS
polyreactivity (PSR sort gate): high polyreactivity

QVQLVESGGGLVQAGGSLRLSCAASGRIFAYYAMGWYRQAPGKERELVAAISSSGVSTSYADSVKGRFTISRDNAKNTVYLQMNSLKPEDTAVYYCAASPGGRPYFNHDSWGQGTQVTVSS
polyreactivity (PSR sort gate): low polyreactivity

QVQLVESGGGLVQAGGSLRLSCAASGRIFAYYAMGWYRQAPGKERELVAAITRSGARTYYADSVKGRFTISRDNAKNTVYLQMNSLKPEDTAVYYCAAEGVRIGTRYDYWGQGTQVTVSS
polyreactivity (PSR sort gate): high polyreactivity

QVQLVESGGGLVQAGGSLRLSCAASGRIFAYYAMGWYRQAPGKERELVAGISKSGGRTYYADSVKGRFTISRDNAKNTVYLQMNSLKPEDTAVYYCAVESYRRYYYWGQGTQVTVSS
polyreactivity (PSR sort gate): high polyreactivity

QVQLVESGGGLVQAGGSLRLSCAASGRIFCTNAMGWYRHEPGKERELVADITSGGSTNYADSVKGRFTISRDNAKNTVYLQMNSLKPEDTAVYSCAADVIGDLRWYRDEYWGQGTQVTVSS
polyreactivity (PSR sort gate): low polyreactivity
